# Measured values as given in patent US20220340894A1 (CDR LIFE, published 2022).
# Legend:
# [1] = molecular target: T1, HLA-A2/MAGE-A4 complex (HLA-A*02:01 extracellular domain, human β2m, MAGE-A4 peptide 230-239) (human, UniProt P04439 25-299 at identity 0.94); P61769 21-119); assay: direct ELISA, plate coated with HLA-A2/MAGE-A4 complex, OD450 nm (second panel, 'Binding to HLA-A2/MAGE-A4', M0710-M0766)
# T1 construct: also called MAGE-A4/HLA-A2 complex; pMHC
# Method: (§1) All available hits were evaluated for their ability to bind MAGE-A4/HLA-A2 complex and a control peptide/HLA-A2 complex in a direct binding ELISA assay. […] Briefly, 96 well ELISA plates were coated with purified human MAGE-A4/HLA-A2 complex or control HLA-A2 complex. Serial dilutions of antibody molecules were added to the plate and detected by an anti-kappa light chain-HRP (Invitrogen) followed by goat anti-rabbit IgG(H+L) HRP (Southern Biotech). […] All tested molecules are rabbit-derived antibodies that are representative of antibodies identified from the nucleic acid libraries described herein.
# [2] = molecular target: T1, HLA-A2/MAGE-A4 complex (HLA-A*02:01 …); assay: direct ELISA, plate coated with HLA-A2/MAGE-A4 complex, OD450 nm (top panel, 'Binding to HLA-A2/MAGE-A4', M0700-M0709)
# Method: as §1
# [3] = molecular target: T2, control peptide 2 (Ctrl.2, …) displayed by HLA-A2 on T2 cells (human); assay: flow cytometry on T2 cells pulsed with control peptide 2; relative MFI = binding over peptide loading (BB7.2)
# T2 construct: whole, on cells
# Method: (§2) TAP-deficient T2 cells were pulsed with HLA-A2-restricted peptides (MAGE-A4 or control peptides) and incubated with MAGE-A4 binders followed by fluorophore-labeled specific detection antibodies and analysis by flow cytometry.
# (§3) Briefly, T-B hybrid T2 cells were incubated with serum-free RPMI1640 medium containing MAGE-A4 or control peptides. […] Peptide loading efficiency was verified by using the ratio between median fluorescent intensity (MFI) of HLA-A2-binding antibody BB7.2 on peptide loaded T2 cells and MFI of unloaded T2 cells (>1). T2 cells were incubated with each of the specific antibodies followed by fluorophore-labeled detection antibodies (anti-kappa light chain or anti-Flag). The cells were fixed and fluorescence was measured by flow cytometry.
# [4] = molecular target: T3, control peptide 1 (Ctrl.1, …) displayed by HLA-A2 on T2 cells (human); assay: flow cytometry on T2 cells pulsed with control peptide 1; relative MFI = binding over peptide loading (BB7.2)
# T3 construct: whole, on cells
# Method: as §2, §3
# [5] = molecular target: T4, MAGE-A4 peptide-HLA-A2 complex presented on cells (human); assay: flow cytometry on T2 cells pulsed with MAGE-A4 peptide; relative MFI = binding over peptide loading (BB7.2)
# T4 construct: whole, on cells; Used both for T2 cells pulsed with the peptide and for tumour cell lines that present it themselves; also called MAGE-A4 positive/HLA-A2 positive cells
# Method: as §2, §3
# [6] = molecular target: T5, control peptide 3 (Ctrl.3, …) displayed by HLA-A2 on T2 cells (human); assay: flow cytometry on T2 cells pulsed with control peptide 3; relative MFI = binding over peptide loading (BB7.2); antibody concentration not given
# T5 construct: whole, on cells
# Method: as §2, §3
# [7] = molecular target: T3, control peptide 1 (Ctrl.1, …) displayed …; assay: flow cytometry on T2 cells pulsed with control peptide 1; relative MFI = binding over peptide loading (BB7.2); antibody concentration not given
# Method: as §2, §3
# [8] = molecular target: T2, control peptide 2 (Ctrl.2, …) displayed …; assay: flow cytometry on T2 cells pulsed with control peptide 2; relative MFI = binding over peptide loading (BB7.2); antibody concentration not given
# Method: as §2, §3
binding result [1],binding result [2],binding result [5],Binder,further results
,binds,,"M0707 (Fab, V domains shown) VH: QQQLEESGGGLVTPGTPLTLTCTVSGIDLSSYAMGWVRQAPGKGLEWIGTINDGGSAFYASWVKGRFTISRTSTTVDLKITSPTAEDTATYFCAKTYGTNGDVYWGYFNLWGQGTLVTVSS VL: ELVMTQTPASVSEPVGGTVTIKCQASQSIGSNLAWYQQKPGQPPKLLIYYESILASGVPSRFSGSGSGTEYTLTISGAQADDAATYYCQQGYSSSNILNAFGGGTEVVVKR",
,binds,binds,"M0709 (Fab, V domains shown) VH: QSVKESGGRLVTPGTPLTLTCTVSGFSLSNYAMSWVRQAPGKGLEYIGIVSSGGTTYYASWAKGRFTISKTSTTVDLKITSPTTEDTATYFCAKDLYYGPTTYSAFNLWGQGTLVTVSS VL: SELVLTQPQSVSGSLGQTVSISCKRARDNIEDYYVHWYQQHPGKTPTIVIHKDDQRPSGVPDRFSGSIDSTSNSASLTITGLLAEDEADYFCQSFDNDASPVFGGGTQLTVTG",binding result [3]: binds; binding result [4]: binds
binds,,binds,"M0763 (Fab, V domains shown) VH: QSVKESGGRLVTPGTPLTLTCTVSGFSLSNYAMSWVRQAPGKGLEYIGIVSSGGTTYYASWAKGRFTISKTSTTVDLKITSPTTEDTATYFCAKDLYYGPTTYSAFNLWGQGTLVTVSS VL: SELVLTQPASVQVNLGQTVSLTCTADTLSRSYASWYQLKPGQAPVLLIYRDTSRPSGVPDRFSGSSSGNTATLTISGAQAGDEGDYVCATSDGSGSNFQLFGGGTQLTVTG",binding result [6]: no binding; binding result [7]: no binding; binding result [8]: no binding

# Second part, the binder before the results:
Binder,binding result [1],binding result [2],binding result [5],further results
"M0766 (Fab, V domains shown) VH: PEQLEESGGGLVTPGGVLTLTCTASGFSFSSYGVNWVRQAPGKGLEWIGFIFGDGTTYYANWAKGRFTISKTSTTVDLKMTSPTTEDTATYFCARDGYGGYDYIINLWGQGTLVTVSS VL: AQVLTQTPASVSAAVGGTVSISCQSSQSVVNNNWLAWYQQKPGQPPKLLIYKASTLESGVPSRFKGSGSGTQFTLTISGVQADDAATYYCLGEFSCSSADCHAFGGGTELEILR",binds,,,
"M0702 (Fab, V domains shown) VH: QEQLEESGGGLVTPGTPLTLTCTASGFSLSSYAMIWVRQAPGKGLEWIGTINDGGTAFYANWVKGRFTISRTSTTVDLKMTSPTTEDTATYFCARAYGSNGDVYWGYVNLWGQGTLVTVSS VL: ELVMTQTPASVSEPVGGTVTIKCQASQSIGSNLAWYQQKPGQPPKLLIYAAANLASGVSSRFKGSRSGTEYTLTISGVQAADAATYYCQQGYSSSNVANVFGGGTELEILR",,,,EC50 (read off the curve) [2]: ~0.6 nM
"M0705 (Fab, V domains shown) VH: QQQLVESGGRLVTPGTPLTLTCTASGIDLNSNAMSWVRQGPGKGLEWIGDIWSGGYTDYASWAKGRFTISKTSTTVDLKMTSLTAADTATYFCARDRLAGDGVVDYDLWGQGTLVTVSS VL: ELDMTQTPASVEVAVGGTVTIKCQASQNIYSNLAWYQQKPGQRPKLLIYGASTLASGVPSRFKGSGSGTEYTLTINGVQAADAATYYCQQGFSSSNVDNVFGGGTEVVVKR",,binds,,
